Six substances from patent US20210338724A1 can be followed below.

In assay [1] the target is IL-2Rβ and common γ chain on 32Dβ cells. Nature of the assay: cell-based or functional assay.
The target of the next assay is TGFβ1 (R&D systems) (UniProt P01137). Nature of the assay: cell-based or functional assay.
Assay [2] concerns the target IL-2Rα, IL-2Rβ and common γ chain on CTLL-2 cells. Nature of the assay: cell-based or functional assay.
Assay [3] concerns the target IL-18/TF/IL-15:IL-12/IL-15RαSu protein complex (18t15-12s) (human). Kind of assay: sandwich ELISA; the concentration is that of the titrated 18t15-12s; anti-human tissue factor capture, BAM 247 detection at a fixed concentration.
The target is the same in assay [4]. Nature of the assay: sandwich ELISA; the concentration is that of the titrated 18t15-12s; anti-human tissue factor capture, D045-6 detection at a fixed concentration.

Sequence of IL-18/TF/IL-15:IL-12/IL-15RαSu protein complex (18t15-12s) (human) (chain, as listed by the source, chain 1 of 2): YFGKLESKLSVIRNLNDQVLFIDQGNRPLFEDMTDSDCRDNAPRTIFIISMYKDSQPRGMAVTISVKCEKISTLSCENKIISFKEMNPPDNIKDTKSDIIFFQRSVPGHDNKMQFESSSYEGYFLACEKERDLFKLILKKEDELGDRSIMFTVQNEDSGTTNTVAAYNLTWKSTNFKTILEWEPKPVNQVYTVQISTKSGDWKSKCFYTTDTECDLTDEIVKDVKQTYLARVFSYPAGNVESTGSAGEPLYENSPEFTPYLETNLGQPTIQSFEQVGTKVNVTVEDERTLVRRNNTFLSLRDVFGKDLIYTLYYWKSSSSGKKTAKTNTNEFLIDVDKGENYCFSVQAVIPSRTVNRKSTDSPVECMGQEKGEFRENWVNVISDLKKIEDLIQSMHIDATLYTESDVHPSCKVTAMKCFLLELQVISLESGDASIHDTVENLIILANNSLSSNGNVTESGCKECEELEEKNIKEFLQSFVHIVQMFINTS
Sequence of IL-18/TF/IL-15:IL-12/IL-15RαSu protein complex (18t15-12s) (human) (chain, as listed by the source, chain 2 of 2): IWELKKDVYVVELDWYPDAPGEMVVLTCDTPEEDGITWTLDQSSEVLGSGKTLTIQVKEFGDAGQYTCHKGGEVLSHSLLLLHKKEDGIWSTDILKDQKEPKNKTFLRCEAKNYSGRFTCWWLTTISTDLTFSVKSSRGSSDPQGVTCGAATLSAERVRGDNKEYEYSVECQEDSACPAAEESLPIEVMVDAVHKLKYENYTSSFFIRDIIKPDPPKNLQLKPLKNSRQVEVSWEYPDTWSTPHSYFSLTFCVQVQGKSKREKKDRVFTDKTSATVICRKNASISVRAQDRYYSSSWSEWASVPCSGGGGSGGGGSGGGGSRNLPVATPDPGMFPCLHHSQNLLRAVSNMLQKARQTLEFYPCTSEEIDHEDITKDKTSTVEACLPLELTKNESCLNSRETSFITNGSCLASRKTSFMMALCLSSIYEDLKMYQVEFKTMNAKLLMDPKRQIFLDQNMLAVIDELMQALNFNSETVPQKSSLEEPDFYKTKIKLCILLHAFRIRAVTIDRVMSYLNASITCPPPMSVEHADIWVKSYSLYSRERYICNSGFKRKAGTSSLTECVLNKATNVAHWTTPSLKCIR
Sequence of UniProt P01137 (P01137 279-390 limits assumed): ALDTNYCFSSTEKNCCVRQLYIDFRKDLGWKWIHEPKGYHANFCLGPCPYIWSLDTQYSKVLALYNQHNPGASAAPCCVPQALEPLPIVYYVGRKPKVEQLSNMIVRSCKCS

In turn, “recombinant IL-15 (from UniProt P40933 49-162) (ligand)” showed an EC50, 32Dβ cell proliferation (WST1) in assay [1] of 0.0106 nM. In the assay with TGFβ1 (R&D systems), TGFR-Fc (R&D Systems) (Fc fusion) showed an IC50, inhibition of TGFβ1 activity in HEK-Blue TGFβ reporter cells (QUANTI-Blue OD) of 0.461 nM. In assay [2], “recombinant IL-2 (from UniProt P60568 21-153) (ligand)” displayed an EC50, CTLL-2 cell proliferation (WST1) of 0.548 nM. In addition, the EC50, 32Dβ cell proliferation (WST1) in assay [1] was determined as 0.14 nM. “biotinylated anti-human IL-15 detection antibody (BAM 247)”: the EC50 (read off the curve) in assay [3] is 0.01 µg/mL. “recombinant IL2 (Proleukin) (from UniProt P60568 22-153) (ligand)”: the EC50, CTLL-2 cell proliferation (WST1) in assay [2] worked out at 0.253 nM. In assay [1], this substance displayed an EC50, 32Dβ cell proliferation (WST1) of 0.0655 nM. With “biotinylated anti-human IL-18 detection antibody (D045-6)”, the 50% effective concentration (EC50 (read off the curve)) in assay [4] came out at 0.03 µg/mL.
